Results from patent US20230272378A1, “ENCODING AND EXPRESSION OF ACE-tRNAs” (University of Rochester, priority 2020, published 2023).

Key:
[1] = test system: nuclei of nondividing cells; assay: Nuclear localization of DNA after cytoplasmic microinjection; type: cell-based
From the text: (D) Schematic of ACE-tRNA MC and CEDT with SV40 DTS.
Inventors have screened over 60 strong general and cell-specific promoters and found seven DTSs. Of these, two perform ubiquitously, while five bind specific transcription factors expressed in a subset of cells.
As an alternative approach to directly labeling the plasmid with Cy3-PNAs, one can also carry out fluorescent in situ hybridization (FISH) to visualize injected DNA. DTS candidate plasmids can be tested for nuclear import activity over a 30 min to 8 hr period in microinjected A549 lung epithelial cells (Dean, D. A. Exp. Cell Res. 230, 293-302 (1997), Dean, D. A., et al., Exp. Cell Res. 253, 713-722 (1999), and Vacik, J., et al., Gene Therapy 6, 1006-1014 (1999)). […] This approach can allow one to rank sequences relative to the SV40 DTS based on their speed of nuclear import. Negative controls of the pUC57 plasmid with no DTS and a positive control of the pUC57-SV40 DTS can also be injected to ensure that the cells remain viable after injection and have the ability to transport DNA into the nucleus.
Importantly, existing MC and CEDT technologies are […] at PTC suppression in both cell culture and in vivo (FIGS. 4-7 and 10). […] Therefore, to improve nuclear targeting, transcription and PTC suppression, ACE-tRNA^ArgUGA MCs and CEDTs with the 72 nucleotide SV40 DTS and generally active DTS are generated. […]

PTC = assay: High resolution mass-spectrometry of the amino acid encoded at the PTC
Experimental: Assays were carried out to ascertain whether ACE-tRNAs identified in the screen were functionalized at the expense of recognition by the aminoacyl-tRNA synthetase. […] It was confirmed that using high resolution mass-spectrometry, the cognate amino acid for both ACE-tRNA^GlyUGA and -tRNA^TrpUGA were encoded with high fidelity, resulting in seamless PTC suppression.

UGA codon = assay: PTC suppression by ACE-tRNA: codon specificity and comparison with aminoglycosides; type: cell-based
From the text: Using a novel high throughput cloning (HTC) and screening (HTS) method, a library of more than 500 suppressor tRNAs (ACE-tRNAs) was recently developed. In the library, the anticodon of human tRNA genes were engineered to recognize disease causing PTC codons (UAG, UAA and UGA). The ACE-tRNAs platform targeted all possible PTCs that are resultant of one nucleotide change from translated codons (tRNA^ArgUGA, tRNA^GlnUAA, tRNA^GlnUAG, tRNA^TrpUGA, tRNA^TrpUAG, tRNA^GluUAA, tRNA^GluUAG, tRNA^CysUGA, tRNA^TyrUAG, tRNA^TyrUAA, tRNA^LeuUGA, tRNA^LeuUAG, tRNA^LeuUAA, tRNA^LysUAG, tRNA^LysUGA, tRNA^SerUGA, tRNA^SerUAG, and tRNA^SerUAA).

p.G542X-CFTR mRNA = assay: qPCR of steady state CFTR mRNA (NMD inhibition) in p.G542X 16HBE14o- cells; type: cell-based, human; conditions: 48 hours after transfection, ACE-tRNA^Gly delivered as plasmid
From the text: (§1) (A) Representative image of 16HBE14o- cells transfected on Transwells. (B) Representative Cl^− short circuit current traced from WT (Black), p.R1162X 16HBE14oe- cells transfected with empty vector (red) and 500 bp ACE-tRNA^Arg CEDTs (blue) in Ussing chamber recordings. […] All constructs were transfected at equal amounts. *p<0.05; **p<0.0001.
(§2) The majority of prior studies had used suppressor tRNAs to rescue PTCs encoded from cDNAs. […] In this example, 16HBE14o- cells, human bronchiole epithelial cell line, were used to determine ACE-tRNAs PTC suppression activity within the endogenous genomic landscape. Also used were mutant 16HBE14o- cells, which were CRISPR/Cas9 modified to harbor CF causing PTCs at positions p.G542X-, p.R1162X- and p.W1282X-CFTR. The cells were used to study CFTR and airway epithelia biology (Cozens, A. L. et al. American journal of respiratory cell and molecular biology 10, 38-47 (1994)).
(§3) The inventors next looked to see if ACE-tRNAs inhibited NMD following transfection of ACE-tRNA transcripts.

W1282X-CFTR mRNA = assay: CFTR mRNA expression in W1282X-CFTR 16HBE14ge- cells; type: cell-based, human
Experimental: In this example, studies were carried out to examine and compare rescues of endogenous CFTR PTCs with a conventional PTC readthrough agent (i.e., G418) and ACE-tRNAs delivered in plasmids. To that end, an engineered human bronchiole epithelial cell line, 16HBE14ge-, was used (Valley et al., Journal of Cystic Fibrosis, Volume 18, Issue 4, July 2019, Pages 476-483). G418 (Geneticin) is a standard PTC readthrough agent that works by interacting with the decoding center of the ribosome and promoting the suppression of PTCs with near-cognate tRNAs, thus incorporating wrong amino acids in many instances. Due to its non-specific nature, rescue by G418 results in generation of a missense mutation from a nonsense mutation. In contrast, ACE-tRNAs as disclosed herein put in the desired amino acid.
To carry out the assays, wildtype 16HBE14ge- cells or 16HBE14ge- cells having the W1282X-CFTR or R1162X-CFTR mutation were (i) treated with 100 uM G418 or vehicle, or (ii) transfected with empty plasmids or various plasmids encoding one or four copies of three ACE-tRNAs (SEQ ID NOs: 8, 4, and 1): 1×ACE-tRNA^Arg 4×ACE-tRNA^Arg, 1×ACE-tRNA^Leu 4×ACE-tRNA^Leu, 1×ACE-tRNA^Trp, and 4×ACE-tRNA^Trp in the manner described in Example 4. After 48 hours, the corresponding CFTR mRNA expression levels were then determined.
In this example, assays were carried out to examine and compare rescues of endogenous CFTR PTCs with ACE-tRNAs delivered in different formats e.g., plasmids, CEDTs, and MCs. The above described 16HBE14ge- cells, which expressed the PTC readthrough reporter piggyBac transgene (FIG. 15A) was used. More specifically, the cells were transfected with plasmids, CEDTs, or MCs encoding ACE-tRNAs. The cells were then sorted by FACS and mRNA was isolated from the non-green cells and green cells. Targeted RT-qPCR was used to quantify CFTR mRNA expression. […]
Further assays were carried out using 16HBEge- cells having W1282X-CFTR and the PTC readthrough reporter piggyBac transgene. […] The cells were NOT sorted by FACS for mRNA expression analysis, rather the entire population was analyzed.

p.W1282X-CFTR mRNA = assay: qPCR of steady state CFTR mRNA (NMD inhibition) in p.W1282X 16HBE14o- cells; type: cell-based, human; conditions: pW1282X cells; 48 hours after transfection; equal amounts; plain ACE-tRNA^Leu = plasmid
From the text: as §1, §2, §3
It had been previously shown that leucine at CFTR p.W1282 (p.W1282L) gives ˜80% WT CFTR function, as measured with Ussing chamber recordings (Xue, X. et al., Human molecular genetics 26, 3116-3129, doi:10.1093/hmg/ddx196 (2017)).

B1: SV40 sequence: DNA sequence from the SV40 genome containing the enhancer repeats, DNA nuclear targeting sequence (nucleic acid)
DNA: ATGCTTTGCATACTTCTGCCTGCTGGGGAGCCTGGGGACTTTCCACACCCTAACTGACACACATTCCACAGCTGGTTGGTACCTGCA
modifications: listed as DNA, chemistry not fully specified
For B1, the “localization after cytoplasmic injection” value [1] was “nuclear localization” and the “time to plasmid nuclear import” value [1] was no more than 30 min.

B2: ACE-tRNA^GlyUGA: anti-codon edited glycine tRNA recognizing the UGA PTC, SEQ ID NO: 5 (nucleic acid)
chain: GCGUUGGUGGUAUAGUGGUUAGCAUAGCUGCCUUCAAAGCAGUUGACCCGGGUUCGAUUCCCGGCCAACGCA
modifications: expressed or natural sequence
For B2, the “fidelity of encoding the cognate amino acid” value (PTC) was “high fidelity”, the stop codon specificity (UGA codon) was “specific for the UGA codon” and the “PTC suppression compared with AMG G418 and gentamicin” value (UGA codon; 48 hr incubation in HEK293 cells) was “significantly outperformed”. The “inhibition of NMD measured by qPCR” value (p.G542X-CFTR mRNA) was “significantly inhibited NMD”.

B3: ACE-tRNA^LeuUGA: anti-codon edited leucine tRNA recognizing the UGA PTC, SEQ ID NO: 4 (nucleic acid)
chain: ACCAGAAUGGCCGAGUGGUUAAGGCGUUGGACUUCAGAUCCAAUGGAUUCAUAUCCGCGUGGGUUCGAACCCCACUUCUGGUA
modifications: expressed or natural sequence
With B3 the “rescue of CFTR mRNA” value (W1282X-CFTR mRNA; delivered via plasmids, FACS-sorted GFP+ and GFP− cells, RT-qPCR) was “significantly rescued”, the “suppression of W1282X compared with Tryptophan ACE-tRNA” value (W1282X-CFTR mRNA; plasmids, 48 hours) was “more effectively” and the “inhibiting nonsense mediated decay compared with G418” value (W1282X-CFTR mRNA; plasmids, G418 100 uM, 48 hours, W1282X-CFTR cells) was “significantly more effective”. For the same molecule, the “inhibition of NMD / rescue measured by qPCR” value (p.W1282X-CFTR mRNA) was “significantly inhibited NMD”.
